In the supplement of paper PMC9170038:

Test system: MS2 coat protein
Experiment: apparent KD of MS2 coat protein; designed switch direction (-1 OFF switch, 1 ON switch): -1; higher = weaker reporter binding
Outline: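 The reported apparent KD is a per-design median over clusters, from curve fits of normalised cluster fluorescence. Protein titrations used SNAP-549-labelled MS2 coat protein, doubled from 0.7 or 1.5 nM to 3 µM, in Tris-HCl pH 7.5 buffer with KCl, MgCl2, BSA, DTT, tRNA and Tween-20, with no input, 200 uM small-molecule ligand, or an oligonucleotide input. The RNA switches were transcribed on Illumina chips by stalled E. coli RNA polymerase.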

[1] = Eterna round: R95, input ligand: FMN 200 uM
[2] = Eterna round: R95, input ligand: microRNA oligo, concentration not stated
[3] = Eterna round: R95, input ligand: none
[4] = input ligand: microRNA oligo, concentration not stated

Sequence	apparent KD of MS2 coat protein [1]	apparent KD of MS2 coat protein [2]	apparent KD of MS2 coat protein [3]	apparent KD of MS2 coat protein (input ligand: FMN 200 uM)	apparent KD of MS2 coat protein [4]	apparent KD of MS2 coat protein (input ligand: none)
AAUAACAAGUAAGAUCCUAACAUGAGGAUCACCCAUGUGCUCGUCUUGUAAAGUACUAUCACGAAAGUGAUAGUACA [Sensor 3, v1 - 51] (puzzle: Sensor v3, turn-off variant 1)	48.3 nM	295 nM	54.7 nM	–	–	–
UUAAUUAAUUAACGCAGCAAGAUCACAUGAGGAUCACCCAUGUAGGAUAUCAGCUCGUUUAGAGCUGAGAAGGACAUAGCUGCG [ExNG3/1-A2] (Eterna round: R96, puzzle: Exclusion NG 3)	–	–	–	87.6 nM	11.1 nM	18 nM
CAGCUGAAAGUCAGGAUAUCUAGAGCUUCGGCUCUAGAGAAGGGACAUGAGGAUCACCCAUGUGAUUACAGCUG [BmEx4/6-A1] (Eterna round: R97, puzzle: Brourd's mod of Exclusion 4)	–	–	–	108 nM	–	60.6 nM
CGUGACUCAGGAUAUUCAUAAUAUCACAUGAGGAUCACCCAUGUCCAGCGAAAGCUGGAGGGAGAAGGGAGUCACG [Fiskers Ex 5 - 37] (puzzle: Exclusion 5)	56.7 nM	151 nM	99.6 nM	–	–	–
CUUUUGUGAGGAUAUGGUAACGAUGACAUGAGGAUCACCCAUGUAACAUGGGACUUGAGACUAGAAGGCACUAACG [JR_Ex5_Sub025] (Eterna round: R97, puzzle: Exclusion 5)	–	–	–	94.7 nM	–	134 nM
AAGGGUACUUUCGGAACGACAUGAGGAUCACCCAUGUAUACUGAGGAUAUCCACUACUAAGGACGGGAGAAGGCAGUGUAAUGU [Ex NG3 #78] (Eterna round: R96, puzzle: Exclusion NG 3)	–	–	–	18.8 nM	13.6 nM	18.5 nM
UCACCGCAAGGAUAUACUUGCGGUGAUGCUCGAAAUCUUCUACUUGAGGAUCACCCAAGUAGAAGGUGCGGUGA [jl-ex2.4.67 ViennaUCT mod] (Eterna round: R97, puzzle: Exclusion 2)	–	–	–	13 nM	–	12.1 nM
GCACCGCGAGGAUAUACAUGAGGAUCACCCAUGUGUCCGCAGCGAUGUGUGUACAAAUGUAGAAGGCGCGUAAA [EX3 #60] (Eterna round: R97, puzzle: Exclusion 3)	–	–	–	21.5 nM	–	12.1 nM
GAGUGACAUGAGGAUCACCCAUGUGAGGAUAUCGGACGGACCAAAUUAACAUCCGCCGCGAGAAGGCACAUCGG [Exclusion 1 V22] (puzzle: Exclusion 1)	–	69.4 nM	–	–	–	–
UCUGCCGCCGUGAGGAUAUGCCCGCGCGCCCGCGGGCAGAAGGCACAUGAGGAUCACCCAUGUCCCGCGGCAUU [salish99_bmx4_r4_128] (Eterna round: R97, puzzle: Brourd's mod of Exclusion 4)	–	–	–	36.4 nM	–	17.4 nM
CUUCGACAUGAGGAUCACCCAUGUCAGGAUAUUGUGUAUCGGGUGUUGGACGGAUAGGCAAGAAGGGAUGUGUG [LRO-Excl1-05] (puzzle: Exclusion 1)	–	27.8 nM	–	–	–	–
AUAAAUCAUGUAGGAUAUGCGUGGCAAAGCUAUGCAGAAGGACAUGAGGAUCACCCAUGUGCUUCCGUCUGGGAACAGACGGUA [Mat - Exclusion NG 1 - Mod of JL - D34] (Eterna round: R96, puzzle: Exclusion NG 1)	–	–	–	243 nM	67.7 nM	84.9 nM
AGCGGCCGAGGAUAUACAAUCCUCCUGGCAGCCUGUCUGCCACAUGAGGAUCACCCAUGUAGAAGGCGGACCGC [Xelezabi] (puzzle: Exclusion 2)	–	128 nM	–	–	–	–
UUUUUUUAUGAAGGAUAUACUUAACAUGAGGAUCACCCAUGUGGUGUUGUGAGUGAGUGAGUUUAGUAGAAGGUCAAUUAUUUU [JMF's solution 23] (Eterna round: R96, puzzle: Exclusion NG 2)	–	–	–	412 nM	379 nM	334 nM
GUGUACGGAGGAUAUAUGUGGGCAGGCUGACCUGCAGCUUCACAUGAGGAUCACCCAUGUAGAAGGCUGUACAC [Mat - Exclusion 2 - Mod of Hyphema - D99] (puzzle: Exclusion 2)	–	20.7 nM	–	–	–	–
CGGUCGUCGUGAGGAUAUACAUGAGGAUCACCCAUGUUUCUCGGGUCGGUCGUCCGGUCGGUGGUGUAGAAGGCGCGGUGGCUG [random 3, A 14%] (Eterna round: R96, puzzle: Exclusion NG 2)	–	–	–	125 nM	95.6 nM	100 nM

Sequence	apparent KD of MS2 coat protein [1]	apparent KD of MS2 coat protein [2]	apparent KD of MS2 coat protein [3]	apparent KD of MS2 coat protein (input ligand: FMN 200 uM)	apparent KD of MS2 coat protein [4]	apparent KD of MS2 coat protein (input ligand: none)
GAAAAGGUAGGAUAUACGAAAAAGAAGGGUAGAAAAAAAACACAUGAGGAUCACCCAUGUAGAAGGACCAAAAG [salish99_ex2_r3_026] (puzzle: Exclusion 2)	56 nM	24.1 nM	21 nM	–	–	–
CCUGUGUGAGGAUAUGGUGUUGGCCAAAAGGAAUAGCUCCUCCAGAAGGCACAUGAGGAUCACCCAUGUCGUGG [Jolly's Folly 23 - Jieux - Exclusion 4] (Eterna round: R96, puzzle: Exclusion 4)	–	–	–	138 nM	50.3 nM	60.2 nM
CUCUUGUUAGGAUAUCAAACCGGCGGCGGAGCCGCCGGAAGUGAGAAGGGACAUGAGGAUCACCCAUGUAAGAA [Maorgees] (puzzle: Exclusion 4)	–	56.3 nM	–	–	–	–
CUGAGCAGACGGAGAUCCCACAUGAGGAUCACCCAUGUCUCAAAAGCUUUUUGCUUGUCUUAUUCUCCUCUGUUCUC [Arorza] (puzzle: Sensor v3, turn-off variant 1)	13.9 nM	100 nM	11.4 nM	–	–	–
GGUCCGUGUGUGAGGAUAUGCUGGUCCUUGGAUCAGCAGAAGGCACAUGAGGAUCACCCAUGUGGUGUCGGACC [Mat - Exclusion 4 - Eli Mod - D33] (Eterna round: R97, puzzle: Brourd's mod of Exclusion 4)	–	–	–	24.6 nM	–	361 nM
CAAAACCGAGGAUAUACUUCGGAGAUAAAGGUAAGUCAAAGACUUGAGGAUCACCCAAGUAGAAGGCGGACGGA [Laeded] (Eterna round: R97, puzzle: Exclusion 2)	–	–	–	95.5 nM	–	22.4 nM
UUUAUUAAUUAAUAUAAUAAGAUCACAUGAGGAUCACCCAUGUAGGAUAUCAGCUCGUUUAGAGCUGAGAAGGACAUAAUUAUA [ExNG3/1-B2] (Eterna round: R96, puzzle: Exclusion NG 3)	–	–	–	135 nM	33.6 nM	35.9 nM
UAACAACAUGAGGAUCACCCAUGUGAGGAUAUGUACGUUCGUUGGCGAACCUUGUUCCGCAGAAGGCAUGUGGG [Eternabot (L1) Solution 28] (Eterna round: R97, puzzle: Exclusion 1)	–	–	–	232 nM	–	38.6 nM
UCGUGUCUUGAGGAUAUGUUUGAAAAGGCCCACGCAGAAGGCGAGACAUGAGGAUCACCCAUGUCACAGCUCCG [EX6 C.16] (Eterna round: R97, puzzle: Exclusion 6)	–	–	–	56.4 nM	–	18.6 nM
CCGAAUAUGCAGGAUAUCGUAUAGGAAACUAUACGAGAAGGGUAAACAUGAGGAUCACCCAUGUUCCUUAACGG [Mat - Exclusion 6 - Eli Mod - D81] (puzzle: Exclusion 6)	–	20.3 nM	–	–	–	–
UUUCUCUGGGCGUCUUCUUACAUGAGGAUCACCCAUGUUUCAUAGGAUAUGCUAUAGUGUUACAUGCAGAAGGAUGUUUGUUUU [JR_ExcNG3_Sub080] (Eterna round: R96, puzzle: Exclusion NG 3)	–	–	–	–	189 nM	–
AGUAGGUCUACCUUGGUGGAUCUGCAUUAUUCAAGUGUUACAUGAGGAUCACCCAUGUCCUCAUUUGCUCGUCUUAU [JL turnoff v2 99.25] (puzzle: Sensor v3, turn-off variant 2)	385 nM	45.7 nM	417 nM	–	–	–
GGUGGACAUGAGGAUCACCCAUGUGAGGAUAUCGGCUGGUACGUGUUGGCUGGCAUCUCGAGAAGGCACAUAGU [Exclusion 1 V61] (puzzle: Exclusion 1)	–	58.8 nM	–	–	–	–
ACUUAUUGAGGAUAUACAGAUUAUUACAUGAGGAUCACCCAUGUUCUUCAAUGUAUAUAUGUAGAAGGCAGAAGUA [Mat - Exclusion 5 - JL Mod - D14] (Eterna round: R97, puzzle: Exclusion 5)	–	–	–	317 nM	–	88.9 nM
GUAAUGAUUGUGAGGAUAUUUCAUAGAUAGAUAUUAGAGAAGGUACAUGAGGAUCACCCAUGUGUGAUUAUACA [Brourd's EX4 #72] (Eterna round: R97, puzzle: Brourd's mod of Exclusion 4)	–	–	–	97.3 nM	–	114 nM
